The values below come from publication PMC5473857, “ZipA and FtsA* stabilize FtsZ-GDP miniring structures” (Scientific Reports, 2017).

The chains are these.
B1: FtsZ from E. coli (wild type, unlabeled) (natural protein, UniProt P0A9A6 1-383, looked up)
chain: MFEPMELTNDAVIKVIGVGGGGGNAVEHMVRERIEGVEFFAVNTDAQALRKTAVGQTIQIGSGITKGLGAGANPEVGRNAADEDRDALRAALEGADMVFIAAGMGGGTGTGAAPVVAEVAKDLGILTVAVVTKPFNFEGKKRMAFAEQGITELSKHVDSLITIPNDKLLKVLGRGISLLDAFGAANDVLKGAVQGIAELITRPGLMNVDFADVRTVMSEMGYAMMGSGVASGEDRAEEAAEMAISSPLLEDIDLSGARGVLVNITAGFDLRLDEFETVGNTIRAFASDNATVVIGTSLDPDMNDELRVTVVATGIGMDKRPEITLVTNKQVQQPVMDRYQQHGMAPLTQEQKPVAKVVNDNAPQTAKEPDYLDIPAFLRKQAD
notes: Cell division protein FtsZ, E. coli; assembles into polymers with GTP, GDP or GMPCPP; also called FtsZ-GTP; FtsZ-GDP; source: over-expressed from plasmid pET11b, purified (30% saturated ammonium sulfate, source Q 10/10 column)

Data set [1] concerns the molecule itself. The data set is described as follows: negative-stain electron microscopy; FtsZ alone assembled with GTP; 5 uM FtsZ in HMK buffer pH 7.5 (50 mM HEPES, 100 mM KAc, 5 mM MgAc); also 5 and 10 uM FtsZ in MEK buffer pH 6.5 with 1 mM EDTA plus GTP, and 5 uM FtsZ in HMK with 0.5 mM GMPCPP; 2% uranyl acetate.
The target in data set [2] is B1. Kind of data set: Trp quenching of ATTO fluorescence; 1 part ATTO-655-labeled FtsZ T151C/Y222W mixed with 9 parts unlabeled wild-type FtsZ; MMK buffer pH 6.5; 25 °C; excitation 650 nm, emission 680 nm; assembly kinetics. The conditions noted are these: both partners purified.
Data set [3] concerns the molecule itself. Kind of data set: negative-stain electron microscopy; FtsZ alone assembled with 0.5 mM GDP, HMK buffer pH 7.5; 5 uM (and 15 uM for E. coli FtsZ); 2% uranyl acetate.

Take B1: in data set [1], the binding result was “binds”.

B2: FtsZ T151C/Y222W labeled with ATTO-655-maleimide (natural protein, E. coli, UniProt P0A9A6 1-383, looked up)
chain: MFEPMELTNDAVIKVIGVGGGGGNAVEHMVRERIEGVEFFAVNTDAQALRKTAVGQTIQIGSGITKGLGAGANPEVGRNAADEDRDALRAALEGADMVFIAAGMGGGTGTGAAPVVAEVAKDLGILTVAVVTKPFNFEGKKRMAFAEQGICELSKHVDSLITIPNDKLLKVLGRGISLLDAFGAANDVLKGAVQGIAELITRPGLMNVDFADVRTVMSEMGWAMMGSGVASGEDRAEEAAEMAISSPLLEDIDLSGARGVLVNITAGFDLRLDEFETVGNTIRAFASDNATVVIGTSLDPDMNDELRVTVVATGIGMDKRPEITLVTNKQVQQPVMDRYQQHGMAPLTQEQKPVAKVVNDNAPQTAKEPDYLDIPAFLRKQAD
modifications: labeled with ATTO-655-maleimide
notes: Cell division protein FtsZ, E. coli, double mutant T151C/Y222W; Used diluted with a 9-fold excess of unlabeled wild-type FtsZ; also called FtsZY222W/T151C; labeled FtsZ; source: over-expressed from plasmid pET11b, purified (ammonium sulfate, source Q 10/10 column)
As for B2, in data set [2], the binding result was “binds”.

B3: PaFtsZ (FtsZ from Pseudomonas aeruginosa), full length (natural protein, UniProt P47204 1-394, looked up)
chain: MFELVDNIAQTAVIKVIGVGGGGGNAVNHMAKNNVEGVEFICANTDAQALKNIAARTVLQLGPGVTKGLGAGANPEVGRQAALEDRERISEVLEGADMVFITTGMGGGTGTGAAPIIAEVAKEMGILTVAVVTRPFPFEGRKRMQIADEGIRALAESVDSLITIPNEKLLTILGKDASLLAAFAKADDVLAGAVRGISDIIKRPGMINVDFADVKTVMSEMGMAMMGTGCASGPNRAREATEAAIRNPLLEDVNLQGARGILVNITAGPDLSLGEYSDVGNIIEQFASEHATVKVGTVIDADMRDELHVTVVATGLGARLEKPVKVVDNTVQGSAAQAAAPAQREQQSVNYRDLDRPTVMRNQSHGSAATAAKLNPQDDLDYLDIPAFLRRQAD
notes: Cell division protein FtsZ, Pseudomonas aeruginosa; also called His6-PaFtsZ; source: expressed from pET15b (NdeI/BamHI), purified (Talon column, thrombin, source Q 10/10 column)
Consider B3, for which the binding result in data set [3] is reported as “binds”.
